Test [1] deals with T1, human Endosialin expressed by Sjsa-1 cells (human, UniProt Q9HCU0 18-757).
T1 construct: Endogenous Endosialin on human cell lines; also called Endosialin present on the cell plasma membrane; Endosialin on cell surface (Sjsa-1, T/G HA-VSMC, A673, SKNAS, A375 cells)
T1 sequence: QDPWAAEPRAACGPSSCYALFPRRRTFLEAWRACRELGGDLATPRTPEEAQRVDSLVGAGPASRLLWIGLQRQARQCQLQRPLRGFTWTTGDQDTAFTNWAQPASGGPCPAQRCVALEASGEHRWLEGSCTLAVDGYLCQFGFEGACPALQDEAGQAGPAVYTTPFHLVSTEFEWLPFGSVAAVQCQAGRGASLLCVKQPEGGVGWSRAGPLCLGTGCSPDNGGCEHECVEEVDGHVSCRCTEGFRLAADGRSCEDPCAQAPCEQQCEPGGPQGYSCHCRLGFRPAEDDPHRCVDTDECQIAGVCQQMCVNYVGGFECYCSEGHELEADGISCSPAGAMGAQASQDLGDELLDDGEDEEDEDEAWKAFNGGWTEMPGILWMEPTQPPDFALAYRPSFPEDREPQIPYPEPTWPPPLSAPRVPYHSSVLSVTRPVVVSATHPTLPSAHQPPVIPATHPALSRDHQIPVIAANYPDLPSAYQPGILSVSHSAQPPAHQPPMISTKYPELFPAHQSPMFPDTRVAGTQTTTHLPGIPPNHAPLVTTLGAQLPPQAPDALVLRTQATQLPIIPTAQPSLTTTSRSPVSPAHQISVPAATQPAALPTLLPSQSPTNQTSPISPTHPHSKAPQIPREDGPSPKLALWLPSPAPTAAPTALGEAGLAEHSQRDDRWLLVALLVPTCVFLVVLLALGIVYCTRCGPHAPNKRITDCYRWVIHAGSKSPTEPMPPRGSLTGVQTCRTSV
Description: flow cytometry on Sjsa-1 cells. As for the experimental part: (§1) Materials and Methods: (FIG. 2). (A) Ninety-six well plates (NUNC Maxisorp modules) were pre-coated with human recombinant Endosialin (1 μg/ml) overnight at 4° C. After blocking with 1% BSA in PBS+0.1% Tween-20 for 1 hour at 4° C., mMP-E-8.3, cMP-E-8.3, hMP-E-8.3 and a commercial antibody against Endosialin at the indicated concentration were added and incubated for 2 hours at room temperature. After several washes with PBS+0.1% Tween-20, a goat anti-mouse or anti-human IgG-HRP solution was added to each well and incubated for 1 hour at 37° C. After washes, stabilized chromogen was added to each well for at least 10 minutes in the dark, then the reaction was stopped with the addition of 1 N H₂SO4 and the absorbance was read at 450 nm with an ELISA reader. (B) Sjsa-1 human osteosarcoma cell line were stained with 1 μg/ml of mMP-E-8.3 antibody, or cMP-E-8.3 and hMP-E-8.3 at 100 ng/ml (blue line) and 1 ug/ml (green line) or with 1 μg/ml of a commercial antibody against Endosialin on ice for 30 minutes after incubation with a Goat anti-mouse/anti-human Alexa-488 conjugated antibodies for 1 hour on ice, cells were analyzed by flow cytometer (FACS). (C) Sjsa-1 human osteosarcoma cells were grown on glass coverslips for 24 hours. […]
On the technique in general: A flow cytometer gives signals particle by particle.

For test [2], the target named is T2, human recombinant Endosialin (human, UniProt Q9HCU0 18-687, limits assumed).
T2 construct: Coated on ELISA plates at 1 ug/ml; also called TEM-1; TEM1
T2 sequence: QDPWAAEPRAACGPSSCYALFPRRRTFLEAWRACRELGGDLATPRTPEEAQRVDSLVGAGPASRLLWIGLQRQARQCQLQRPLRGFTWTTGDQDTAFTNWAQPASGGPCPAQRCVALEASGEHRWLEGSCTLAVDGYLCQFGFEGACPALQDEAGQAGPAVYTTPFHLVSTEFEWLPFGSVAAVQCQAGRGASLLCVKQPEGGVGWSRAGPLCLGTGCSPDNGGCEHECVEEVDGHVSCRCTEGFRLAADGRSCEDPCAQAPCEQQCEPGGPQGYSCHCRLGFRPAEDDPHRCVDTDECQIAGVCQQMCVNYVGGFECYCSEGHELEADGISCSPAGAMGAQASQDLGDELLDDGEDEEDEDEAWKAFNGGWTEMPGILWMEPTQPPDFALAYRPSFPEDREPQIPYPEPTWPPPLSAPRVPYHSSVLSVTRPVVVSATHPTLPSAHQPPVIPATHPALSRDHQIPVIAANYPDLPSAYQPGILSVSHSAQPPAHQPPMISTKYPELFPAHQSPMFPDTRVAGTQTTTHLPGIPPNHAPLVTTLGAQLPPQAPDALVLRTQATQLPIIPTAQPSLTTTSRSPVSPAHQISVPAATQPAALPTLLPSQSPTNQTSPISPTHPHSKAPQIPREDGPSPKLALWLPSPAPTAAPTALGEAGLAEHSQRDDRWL
Description: ELISA, plate coated with recombinant Endosialin. As for the experimental part:
as §1
In general terms: An ELISA detects its analyte on a solid surface through an enzyme-linked reagent.

B1: cMP-E-8.3 (antibody, V domains shown)
VH: QVQLQESGPGLVAPSQSLSITCTVSGFSLTGYGVNWVRQPPEKGLEWLGMIWVDGSTDYNSALKSRLNISKDKSKSQVFLKMNSLQTDDTARYYCARGGYGAMDYWGQGTSVTVSS
VL: DIQMNQSPSSLSASLGDTITITCHASQNINVWLTWYQQKPGNIPKLLIYKASNLHTGVPSRFSGSGSGTGFTLTISSLQPEDIATYYCQQGQSYPWTFGGGTKLEIKR
notes: also called chimeric cMP-E-8.3; chimerized version of mMP-E-8.3
On to B1, for which the binding result in test [1] and in test [2] was “binds” each time.
